± gives the standard deviation of the averaged measurements.
B1: library; a variant is named by its letters at N, in order (parent)
chain: GCUGUCACCGGUGCUUGGUACGUUAUAUUCAGCCGGUCUGAUGAGUCUNNNNNNAGACGAAACAGC

Legend:
(6R,S)-folinic acid [1] = variants of: B1; assay: normalized RNA/DNA level without ligand (relative to sTRSVctl = 100) (log10 (% of sTRSVctl)); HEK293T overexpressing SLC46A1; higher = less ribozyme self-cleavage, higher mRNA level; conditions: without (6R,S)-folinic acid; ligand present: no
Procedure, shortened: (§1)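 Ribozyme switch library plasmids linked to reporters were introduced into HEK293T cells at 4 µg per 6-well well, with ligand, if any, added 1 h before. Total RNA was extracted with EDTA 72 h later, reverse-transcribed, amplified, barcoded and sequenced. RNA level was computed from RNA over DNA reads relative to a spiked-in non-cleaving sequence or the top sequences, then scaled and log-transformed. The top set was 25 sequences, values were ×100 and log10, and the cutoff was ≥100 DNA reads.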

(6R,S)-folinic acid [2] = variants of: B1; assay: normalized RNA/DNA level with ligand (relative to sTRSVctl = 100) (log10 (% of sTRSVctl)); HEK293T overexpressing SLC46A1; ligand concentration (+) RNA-Seq: 6 mM; higher = less ribozyme self-cleavage, higher mRNA level; conditions: with (6R,S)-folinic acid; ligand present: yes
Procedure, shortened: as §1

GCUGUCACCGGUGCUUGGUACGUUAUAUUCAGCCGGUCUGAUGAGUCUACUGAUAGACGAAACAGC [ACUGAU]
normalized RNA/DNA level without ligand (log10) ((6R,S)-folinic acid [1]): 1.9488 ± 0.0011
normalized RNA/DNA level with ligand (log10) ((6R,S)-folinic acid [2]): 2 ± 0.031

GCUGUCACCGGUGCUUGGUACGUUAUAUUCAGCCGGUCUGAUGAGUCUACUGACAGACGAAACAGC [ACUGAC]
normalized RNA/DNA level without ligand (log10) ((6R,S)-folinic acid [1]): 2.002 ± 0.0086
normalized RNA/DNA level with ligand (log10) ((6R,S)-folinic acid [2]): 1.999 ± 0.0088

GCUGUCACCGGUGCUUGGUACGUUAUAUUCAGCCGGUCUGAUGAGUCUGCUCUCAGACGAAACAGC [GCUCUC]
normalized RNA/DNA level without ligand (log10) ((6R,S)-folinic acid [1]): 2.126 ± 0.0057
normalized RNA/DNA level with ligand (log10) ((6R,S)-folinic acid [2]): 2.08 ± 0.039

GCUGUCACCGGUGCUUGGUACGUUAUAUUCAGCCGGUCUGAUGAGUCUGCUCUUAGACGAAACAGC [GCUCUU]
normalized RNA/DNA level without ligand (log10) ((6R,S)-folinic acid [1]): 2.038 ± 0.014
normalized RNA/DNA level with ligand (log10) ((6R,S)-folinic acid [2]): 1.998 ± 0.011

GCUGUCACCGGUGCUUGGUACGUUAUAUUCAGCCGGUCUGAUGAGUCUGCUCUAAGACGAAACAGC [GCUCUA]
normalized RNA/DNA level without ligand (log10) ((6R,S)-folinic acid [1]): 2.01 ± 0.024
normalized RNA/DNA level with ligand (log10) ((6R,S)-folinic acid [2]): 2.03 ± 0.018

GCUGUCACCGGUGCUUGGUACGUUAUAUUCAGCCGGUCUGAUGAGUCUUCUCUAAGACGAAACAGC [UCUCUA]
normalized RNA/DNA level without ligand (log10) ((6R,S)-folinic acid [1]): 1.997 ± 0.0062
normalized RNA/DNA level with ligand (log10) ((6R,S)-folinic acid [2]): 2.01 ± 0.04

GCUGUCACCGGUGCUUGGUACGUUAUAUUCAGCCGGUCUGAUGAGUCUUCUCUCAGACGAAACAGC [UCUCUC]
normalized RNA/DNA level without ligand (log10) ((6R,S)-folinic acid [1]): 2.076 ± 0.015
normalized RNA/DNA level with ligand (log10) ((6R,S)-folinic acid [2]): 2.04 ± 0.035

GCUGUCACCGGUGCUUGGUACGUUAUAUUCAGCCGGUCUGAUGAGUCUUCUCUUAGACGAAACAGC [UCUCUU]
normalized RNA/DNA level without ligand (log10) ((6R,S)-folinic acid [1]): 2.06 ± 0.034
normalized RNA/DNA level with ligand (log10) ((6R,S)-folinic acid [2]): 2.06 ± 0.059

GCUGUCACCGGUGCUUGGUACGUUAUAUUCAGCCGGUCUGAUGAGUCUUCUCUGAGACGAAACAGC [UCUCUG]
normalized RNA/DNA level without ligand (log10) ((6R,S)-folinic acid [1]): 1.89 ± 0.011
normalized RNA/DNA level with ligand (log10) ((6R,S)-folinic acid [2]): 1.96 ± 0.027

GCUGUCACCGGUGCUUGGUACGUUAUAUUCAGCCGGUCUGAUGAGUCUGCUCGGAGACGAAACAGC [GCUCGG]
normalized RNA/DNA level without ligand (log10) ((6R,S)-folinic acid [1]): 2.034 ± 0.016
normalized RNA/DNA level with ligand (log10) ((6R,S)-folinic acid [2]): 2.03 ± 0.026

GCUGUCACCGGUGCUUGGUACGUUAUAUUCAGCCGGUCUGAUGAGUCUACUCGUAGACGAAACAGC [ACUCGU]
normalized RNA/DNA level without ligand (log10) ((6R,S)-folinic acid [1]): 2.028 ± 0.016
normalized RNA/DNA level with ligand (log10) ((6R,S)-folinic acid [2]): 1.983 ± 0.016

GCUGUCACCGGUGCUUGGUACGUUAUAUUCAGCCGGUCUGAUGAGUCUACUCGGAGACGAAACAGC [ACUCGG]
normalized RNA/DNA level without ligand (log10) ((6R,S)-folinic acid [1]): 1.979 ± 0.013
normalized RNA/DNA level with ligand (log10) ((6R,S)-folinic acid [2]): 2.02 ± 0.024

GCUGUCACCGGUGCUUGGUACGUUAUAUUCAGCCGGUCUGAUGAGUCUGCUGCAAGACGAAACAGC [GCUGCA]
normalized RNA/DNA level without ligand (log10) ((6R,S)-folinic acid [1]): 2.01 ± 0.022
normalized RNA/DNA level with ligand (log10) ((6R,S)-folinic acid [2]): 2.03 ± 0.047

GCUGUCACCGGUGCUUGGUACGUUAUAUUCAGCCGGUCUGAUGAGUCUGCUGCGAGACGAAACAGC [GCUGCG]
normalized RNA/DNA level without ligand (log10) ((6R,S)-folinic acid [1]): 2.002 ± 0.0047
normalized RNA/DNA level with ligand (log10) ((6R,S)-folinic acid [2]): 2.05 ± 0.029

GCUGUCACCGGUGCUUGGUACGUUAUAUUCAGCCGGUCUGAUGAGUCUUCUGAUAGACGAAACAGC [UCUGAU]
normalized RNA/DNA level without ligand (log10) ((6R,S)-folinic acid [1]): 1.973 ± 0.008
normalized RNA/DNA level with ligand (log10) ((6R,S)-folinic acid [2]): 2 ± 0.046

GCUGUCACCGGUGCUUGGUACGUUAUAUUCAGCCGGUCUGAUGAGUCUUCUGACAGACGAAACAGC [UCUGAC]
normalized RNA/DNA level without ligand (log10) ((6R,S)-folinic acid [1]): 2.011 ± 0.0043
normalized RNA/DNA level with ligand (log10) ((6R,S)-folinic acid [2]): 2.01 ± 0.052

GCUGUCACCGGUGCUUGGUACGUUAUAUUCAGCCGGUCUGAUGAGUCUUCUGAGAGACGAAACAGC [UCUGAG]
normalized RNA/DNA level without ligand (log10) ((6R,S)-folinic acid [1]): 1.745 ± 0.011
normalized RNA/DNA level with ligand (log10) ((6R,S)-folinic acid [2]): 1.98 ± 0.03

GCUGUCACCGGUGCUUGGUACGUUAUAUUCAGCCGGUCUGAUGAGUCUUCUGAAAGACGAAACAGC [UCUGAA]
normalized RNA/DNA level without ligand (log10) ((6R,S)-folinic acid [1]): 1.911 ± 0.0014
normalized RNA/DNA level with ligand (log10) ((6R,S)-folinic acid [2]): 1.98 ± 0.05

GCUGUCACCGGUGCUUGGUACGUUAUAUUCAGCCGGUCUGAUGAGUCUCCUGCAAGACGAAACAGC [CCUGCA]
normalized RNA/DNA level without ligand (log10) ((6R,S)-folinic acid [1]): 2.047 ± 0.0035
normalized RNA/DNA level with ligand (log10) ((6R,S)-folinic acid [2]): 2.059 ± 0.0067

GCUGUCACCGGUGCUUGGUACGUUAUAUUCAGCCGGUCUGAUGAGUCUCCUGCGAGACGAAACAGC [CCUGCG]
normalized RNA/DNA level without ligand (log10) ((6R,S)-folinic acid [1]): 2.01 ± 0.016
normalized RNA/DNA level with ligand (log10) ((6R,S)-folinic acid [2]): 2.033 ± 0.02

GCUGUCACCGGUGCUUGGUACGUUAUAUUCAGCCGGUCUGAUGAGUCUCCUGCCAGACGAAACAGC [CCUGCC]
normalized RNA/DNA level without ligand (log10) ((6R,S)-folinic acid [1]): 2.058 ± 0.0075
normalized RNA/DNA level with ligand (log10) ((6R,S)-folinic acid [2]): 2 ± 0.068
